{"source": "patent US20230127087", "about": "“GLYPICAN-3-SPECIFIC MODIFIED APTAMER AND USE THEREOF” (APTAMER SCIENCES INC., published 2023)", "key": {"Glypican-3 (GPC3) [1]": {"target": "T1, Glypican-3 (GPC3) (UniProt P51654 P51654:25-554)", "T1 sequence (P51654 25-554, one chain of several)": "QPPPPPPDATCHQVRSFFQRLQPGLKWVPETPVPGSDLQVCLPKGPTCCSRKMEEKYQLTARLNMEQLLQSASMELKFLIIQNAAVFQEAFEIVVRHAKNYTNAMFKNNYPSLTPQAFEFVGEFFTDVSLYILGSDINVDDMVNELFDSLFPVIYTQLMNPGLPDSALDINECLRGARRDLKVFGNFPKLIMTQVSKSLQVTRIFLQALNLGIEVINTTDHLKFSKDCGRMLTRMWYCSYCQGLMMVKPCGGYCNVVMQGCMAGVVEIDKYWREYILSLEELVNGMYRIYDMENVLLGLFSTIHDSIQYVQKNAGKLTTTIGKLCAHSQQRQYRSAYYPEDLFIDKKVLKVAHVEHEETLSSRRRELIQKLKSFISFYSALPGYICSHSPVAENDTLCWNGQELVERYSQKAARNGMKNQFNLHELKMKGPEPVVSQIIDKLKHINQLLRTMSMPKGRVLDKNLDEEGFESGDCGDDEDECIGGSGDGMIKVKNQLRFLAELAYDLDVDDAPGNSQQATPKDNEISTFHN", "assay": "filter; gemcitabine in loop; values only in figure"}, "Glypican-3 (GPC3) [2]": {"target": "T1, Glypican-3 (GPC3)", "assay": "filter; gemcitabine at 3' end; values only in figure"}, "Glypican-3 (GPC3) [3]": {"target": "T1, Glypican-3 (GPC3)", "assay": "Kd similar to 12-10; GPC3-Cy5; value only in figure", "conditions": "label: 5' Cy5 (cell assays)"}}}
{"binder": "GGGAAGTGAATGCGTTGAATTATGTCCCTTCAGTCATCAC (ssDNA, n = BzdU; S = gemcitabine [BzdU (T) at 7,11,15,16,20,21,23,25,29,30,34,37; gemcitabine (C) at 26,27])", "note": "[12-10 G(2)L]", "values": [{"measurement": "binding result", "setting": "Glypican-3 (GPC3) [1]", "result": "binds"}]}
{"binder": "GGGAAGTGAATGCGTTGAATTATGTCCCTTCAGTCATCACCA (ssDNA, n = BzdU; S = gemcitabine [BzdU (T) at 7,11,15,16,20,21,23,25,29,30,34,37; gemcitabine (C) at 40,41])", "note": "[12-10 G(2)3']", "values": [{"measurement": "binding result", "setting": "Glypican-3 (GPC3) [2]", "result": "binds"}]}
{"binder": "GTGAATGCGTTGAATTATGTCCCTTCAGTCATCAC (ssDNA, n = BzdU; 3' idT)", "note": "[12-12]", "values": [{"measurement": "binding result", "setting": "Glypican-3 (GPC3) [3]", "result": "binds"}]}
